Substitutions are numbered along the chain they refer to. Values belong to the binder of their own block, whether it stands above or below them.
Experiments:
[1] = biological target: T1, human GPC3 on CHO-K1-human GPC3 cells (CHOK1-hGPC3.2B5) (human, UniProt P51654 25-554); test: FACS, CHOK1-hGPC3.2B5 cells;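 note: flow cytometry of humanized antibodies binding to the cells over one hour in the cold, read as cell mean fluorescence intensity, with EC50 obtained by curve fitting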
T1 construct: whole, on cells
Description: The desired cells were expanded to a logarithmic growth phase in a T-75 cell culture flask, the medium was removed by pipetting, and the cells were washed twice with a PBS buffer, and digested with trypsin. Then a complete medium was added to stop the digestion, and the cells were blown into a single cell suspension. After counting, the cells were centrifuged, and the cell pellet was resuspended with an FACS buffer (PBS+2% fetal bovine serum) to 2×10⁶ cells/mL. The cell resuspension solution was added to a 96-well FACS reaction plate at 50 μl/well, and a humanized antibody sample to be tested was added at 50 μl/well for incubation at 4° C. for 1 h. […] After the plate was centrifuged and washed 3 times with a PBS buffer, 100 μl of the resulting solution was assayed and analyzed by FACS (FACS Canto™, purchased from BD Biosciences). Data analysis was performed by software (FlowJo) to obtain the mean fluorescence intensity (MFI) of the cells. Then, analysis was performed by software (GraphPad Prism8), data were fitted, and EC₅₀ values were calculated.

[2] = biological target: biotinylated labeled human GPC3 protein (produced in-house) (human, UniProt P51654 25-559, limits assumed, biotinylated (Dojindo, Cat. No. LK03); sites not stated); test: ELISA, biotinylated human GPC3 protein
monkey GPC3-His protein [3] = biological target: T2, monkey GPC3-His protein (monkey); test: ELISA, monkey GPC3-His coated;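 note: Plate-coated antigen at 1 µg/mL, antibody binding 2 h at 37 °C, detected with HRP-labeled secondary antibody and TMB, absorbance at 450 nm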
T2 construct: Bought recombinant protein; also called monkey GPC3 protein

human GPC3-His protein = biological target: T3, human GPC3-His protein (human, UniProt P51654 25-559); test: SPR, antibody captured on Protein A chip, human GPC3-His analyte;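 note: measured at 25 °C flow cell, human GPC3-His injected at five concentrations up to 200 nM, 240 s association, up to 600 s dissociation, double-referenced, fitted to Langmuir 1:1 model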
T3 construct: also called human GPC3 protein; not shown: His tag

monkey GPC3-His protein [4] = biological target: T2, monkey GPC3-His protein; test: SPR, antibody captured on Protein A chip, monkey GPC3-His analyte;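 note: run at 25 °C with 240 s association and up to 600 s dissociation, double-referenced, kinetics fitted to a 1:1 Langmuir binding model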

EC50 [1]: 2.19 nM
Max MFI [1]: 17000 MFI
OD450 at 0.0004 nM [2]: 0.054 OD450
OD450 at 0.002 nM [2]: 0.067 OD450
OD450 at 0.011 nM [2]: 0.127 OD450
OD450 at 0.056 nM [2]: 0.442 OD450
OD450 at 0.28 nM [2]: 0.993 OD450
OD450 at 1.39 nM [2]: 1.5 OD450
OD450 at 6.94 nM [2]: 1.36 OD450
OD450 at 34.72 nM [2]: 1.3 OD450
B1: GC33 IgG (antibody, V domains shown)
VH: QVQLVQSGAEVKKPGASVKVSCKASGYTFTDYEMHWVRQAPGQGLEWMGALDPKTGDTAYSQKFKGRVTLTADKSTSTAYMELSSLTSEDTAVYYCTRFYSYTYWGQGTLVTVSS
VL: DVVMTQSPLSLPVTPGEPASISCRSSQSLVHSNRNTYLHWYLQKPGQSPQLLIYKVSNRFSGVPDRFSGSGSGTDFTLKISRVEAEDVGVYYCSQNTHVPPTFGQGTKLEIKR
notes: Control antibody expressed as complete IgG; also called codrituzumab

EC50 [1]: 0.54 nM
Max MFI [1]: 4770 MFI
OD450 at 0.0008 nM [2]: 0.074 OD450
OD450 at 0.004 nM [2]: 0.194 OD450
OD450 at 0.02 nM [2]: 0.43 OD450
OD450 at 0.11 nM [2]: 0.856 OD450
OD450 at 0.53 nM [2]: 1.05 OD450
OD450 at 2.67 nM [2]: 1.04 OD450
OD450 at 13.33 nM [2]: 1.07 OD450
OD450 at 66.66 nM [2]: 1.16 OD450
B2: hAb005LH2L1b (antibody, human IgG1, V domains shown)
VH: EVQLVQSGAEVKKPGASVKVSCKASGYTFTDYEMHWVRQAPGQGLEWMGAIDPETGNTAYIQKFKGRVTLTTDKSTSTAYMELRSLRSDDTAVYYCTRFYSYSHWGQGTTVTVSS
VL: DIVMTQTPLSLPVTPGEPASISCRSSQSLVHSNRNTYLHWYLQKPGQSPQLLIYKVSNRFSGVPDRFSGSGSGTDFTLKISRVEAEDVGVYYCSQNTHVPPTFGGGTKVEIK
notes: Humanized F3.54.12; VH H2 + VL L1b; expressed as human IgG1

EC50 [1]: 0.558 nM
Max MFI [1]: 4740 MFI
OD450 at 0.0008 nM [2]: 0.074 OD450
OD450 at 0.004 nM [2]: 0.169 OD450
OD450 at 0.02 nM [2]: 0.426 OD450
OD450 at 0.11 nM [2]: 0.838 OD450
OD450 at 0.53 nM [2]: 0.952 OD450
OD450 at 2.67 nM [2]: 1.1 OD450
OD450 at 13.33 nM [2]: 1.03 OD450
OD450 at 66.66 nM [2]: 1.04 OD450
B3: hAb005LH3L1b (antibody, human IgG1, V domains shown)
VH: B2 VH with M48I, V68A
VL: B2 VL
notes: Humanized F3.54.12; VH H3 + VL L1b; expressed as human IgG1

EC50 [1]: 133 nM
Max MFI [1]: 136 MFI
OD450 at 0.0008 nM [2]: 0.047 OD450
OD450 at 0.004 nM [2]: 0.049 OD450
OD450 at 0.02 nM [2]: 0.049 OD450
OD450 at 0.11 nM [2]: 0.05 OD450
OD450 at 0.53 nM [2]: 0.058 OD450
OD450 at 2.67 nM [2]: 0.101 OD450
OD450 at 13.33 nM [2]: 0.153 OD450
OD450 at 66.66 nM [2]: 0.402 OD450
B4: hAb005LH3L1a (antibody, human IgG1, V domains shown)
VH: B2 VH with M48I, V68A
VL: B2 VL with N33D, R34G
notes: Humanized F3.54.12; VH H3 + VL L1a; expressed as human IgG1

EC50 [1]: 0.734 nM
Max MFI [1]: 4700 MFI
OD450 at 0.0008 nM [2]: 0.079 OD450
OD450 at 0.004 nM [2]: 0.162 OD450
OD450 at 0.02 nM [2]: 0.441 OD450
OD450 at 0.11 nM [2]: 0.715 OD450
OD450 at 0.53 nM [2]: 0.923 OD450
OD450 at 2.67 nM [2]: 1.1 OD450
OD450 at 13.33 nM [2]: 1.07 OD450
OD450 at 66.66 nM [2]: 1.12 OD450
B5: hAb005LH3L1 (antibody, human IgG1, V domains shown)
VH: B2 VH with M48I, V68A
VL: B2 VL with R34G
notes: Humanized F3.54.12; VH H3 + VL L1; expressed as human IgG1

OD450 at 0.0001 nM (monkey GPC3-His protein [3]): 0.04 OD450
OD450 at 0.001 nM (monkey GPC3-His protein [3]): 0.25 OD450
OD450 at 0.01 nM (monkey GPC3-His protein [3]): 0.3 OD450
OD450 at 0.1 nM (monkey GPC3-His protein [3]): 0.72 OD450
OD450 at 1 nM (monkey GPC3-His protein [3]): 1.39 OD450
OD450 at 10 nM (monkey GPC3-His protein [3]): 1.53 OD450
OD450 at 100 nM (monkey GPC3-His protein [3]): 1.5 OD450
Kd (human GPC3-His protein): 9.04 nM
koff (human GPC3-His protein): 0.000314 s⁻¹
kon (human GPC3-His protein): 34700 M⁻¹ s⁻¹
Kd (monkey GPC3-His protein [4]): 6.61 nM
koff (monkey GPC3-His protein [4]): 0.000317 s⁻¹
kon (monkey GPC3-His protein [4]): 48000 M⁻¹ s⁻¹
B6: F1.9.19 (antibody, human IgG1, kappa, V domains shown)
VH: DVQLQESGPGLVKPSQSLSLTCSVTGYSITSGYYWNWIRQFPGNRLEWMAYISYDGINNYNPSLKNRISIARDTSTNQFFLKLNSVTSEDTATYYCATTTEVALFDHWGQGTTLTVSS
VL: DVLLTQTPLSLPVSLGDQASISCRSSQNIVHGNGNTYLEWFLQKPGQSPKLLIYKVSNRFSGVPDRFSGSGSGTDFTLKISRVEAEDLGLYYCFQASHVPWTFGGGTKLEIKR
notes: Human-murine chimeric antibody

OD450 at 0.0001 nM (monkey GPC3-His protein [3]): 0.27 OD450
OD450 at 0.001 nM (monkey GPC3-His protein [3]): 0.36 OD450
OD450 at 0.01 nM (monkey GPC3-His protein [3]): 0.49 OD450
OD450 at 0.1 nM (monkey GPC3-His protein [3]): 1.06 OD450
OD450 at 1 nM (monkey GPC3-His protein [3]): 1.61 OD450
OD450 at 10 nM (monkey GPC3-His protein [3]): 1.98 OD450
OD450 at 100 nM (monkey GPC3-His protein [3]): 2 OD450
Kd (human GPC3-His protein): 0.92 nM
koff (human GPC3-His protein): 6.22e-05 s⁻¹
kon (human GPC3-His protein): 67600 M⁻¹ s⁻¹
Kd (monkey GPC3-His protein [4]): 0.414 nM
koff (monkey GPC3-His protein [4]): 4.27e-05 s⁻¹
kon (monkey GPC3-His protein [4]): 103000 M⁻¹ s⁻¹
B7: F1.153.1 (antibody, human IgG1, kappa, V domains shown)
VH: QIQLVQSGPELKKPGETVKISCKASGYTFTTAGMQWVQKMPGKGFKWIGWINTHSGEPQYAEDFKGRFAFSLETSASTAYLQISNLKNEDTATYFCARSFYYHGSSFFYFDYWGQGTTLTVSS
VL: DIVMTQSQKFMSTTVGDRVSITCKASQNVGTAVAWYQQKPGQSPKLLIYSASNRYTGVPDRFTGSGSGADFTLTISNMQSEDLADYFCQQYSRYPLTFGAGTKLELKR
notes: as for B6
